The results in this text go back to patent US20150307627A1.

Numbering of substitutions follows the chain as printed.

To fix the notation:
B1: IgG-Fc-11 (VHH)
VHH: QVQLQESGGGLVQAGGSLRLSCAVSGRTFSTYAMGWFRQAPGKEREFVGSANWKSGSTYLVDSVKGRFTISGDNAHDTVHLQMTSLKPEDTGVYFCVARSFGTGQWDYWGQGTQVTVSS
B2: IgG-Fc-12 (VHH)
VHH: B1 VHH with A51I, W53F, T58I, V61A, H76Q, D77N, V79A, H80Y, G92A, F95L
B3: IgG-Fc-15 (VHH)
VHH: QVQLQESGGGLVQAGGSLRLSCAVSGRGFSTYAMGWFRQAPGKEREFVGSANWKSGSIYVADSVKGRFTISNDNAQNTVYLQMSSLKPEDTAVYYCVARSFGTGQWDYWGQGTQVTVSS
B4: IgG-Fc-13 (VHH)
VHH: QVQLQESGGGLVQAGGSLRLSCAASGDTFSTYAMGWFRQAPGKEREFVGRIVRGTESTYLIDSVKGRFAISRDNAQNTVYLQMTSLKPEDTAVYFCVARSFGAGQWDYWGQGTQVTVSS
B5: IgG-Fc-14 (VHH)
VHH: QVQLQESGGGLVQTGGSLRLSCSASGGTFETYAMGWFRQAPGKEREFVGSTNWKSERTYVADSVKGRFTISRDNGQYTAYLQMTSLKPEDTAVYFCVARSFGTGQWDYWGQGTQVTVSS

This experiment addresses Human IgG. Kind of experiment: method not given.
In the case of B1, the Ka was above 4e+09 M⁻¹. Then B2, with above 4e+09 M⁻¹; and B3, with above 4e+09 M⁻¹. The same measure for B4: above 4e+09 M⁻¹; for B5: above 4e+09 M⁻¹.
